# In patent US20190248902A1 (published 2019):
# Numbering of substitutions follows the chain as printed.
# T1: soluble human ASGR-1 carbohydrate binding domain (CBD; amino acid residues 154-281; N-terminal 6xHis tag) (human, UniProt P07306 154-281)
# T1 construct: also called ASGR-1 CBD
# T1 sequence: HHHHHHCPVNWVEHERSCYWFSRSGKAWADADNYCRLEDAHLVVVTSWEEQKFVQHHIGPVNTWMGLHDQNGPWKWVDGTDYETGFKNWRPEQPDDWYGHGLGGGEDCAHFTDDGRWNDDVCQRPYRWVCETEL
# T2: human ASGR-1 mutant construct H203 (human, UniProt P07306 1-291)
# T2 construct: Arg/Glu scanning: non-arginine residues were changed to arginine; Transiently expressed on CHO-S cells
# T2 sequence: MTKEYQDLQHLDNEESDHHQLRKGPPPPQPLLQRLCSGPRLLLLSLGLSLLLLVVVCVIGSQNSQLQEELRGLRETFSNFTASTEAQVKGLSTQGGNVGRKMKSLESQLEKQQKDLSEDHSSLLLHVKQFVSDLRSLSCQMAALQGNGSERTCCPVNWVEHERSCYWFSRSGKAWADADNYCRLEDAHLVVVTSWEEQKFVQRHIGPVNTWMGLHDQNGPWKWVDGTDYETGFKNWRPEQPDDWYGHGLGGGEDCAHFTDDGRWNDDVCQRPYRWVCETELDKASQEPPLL
# T3: Human ASGR-2 (human, UniProt P07307 1-311)
# T3 construct: Expressed on HEK 293 cells; cDNA GenBank NM_080913.3; also called huASGR-2; hASGR-2
# T3 sequence: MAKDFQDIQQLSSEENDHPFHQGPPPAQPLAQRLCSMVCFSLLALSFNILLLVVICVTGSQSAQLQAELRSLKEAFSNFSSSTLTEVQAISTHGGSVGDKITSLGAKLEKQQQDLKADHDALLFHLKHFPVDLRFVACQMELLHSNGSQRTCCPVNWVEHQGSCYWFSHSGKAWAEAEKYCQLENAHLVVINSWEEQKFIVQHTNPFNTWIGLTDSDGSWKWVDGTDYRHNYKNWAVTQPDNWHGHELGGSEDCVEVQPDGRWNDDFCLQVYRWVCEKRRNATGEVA
# B1: 56E5 (antibody, V domains shown)
# VH: QVQLVQSGAEVKKPGASVKVSCQASGYTFTGYHMHWVRQAPGQGLEWMGWINPNNNATNYAQKFQGRVTMTRDTSISTAYMELRRLRSDDTAVYHCARDGTSSFDYWGQGTLVTVSS
# VL: DIQMTQSPSSVSASVGDRVTITCRASQGIRKWLAWYQQKPGKAPKLLIYAASSLQSGVPSRFSGSGSGTDFTLTISSLQPEDFATYYCQQANSFPFTFGPGTKVDIK
# notes: mAb
# B2: 5E5 (antibody, V domains shown)
# VH: QVQLVESGGGVVQPGRSLRLSCAASGFTFSNYVMHWVRQAPGKGLEWVAVIWYDGSNKYYADSVKGRFTISRDNSKNTLYLQMNSLRAEDTAVYYCTREVYSSGWYDYGMDVWGQGTTVTVSS
# VL: DIQMTQSPSSLSASVGDRVTITCRASQGIRNDLGWYQQKPGKAPKRLIYAASSLQSGVPSRFSGSGSGTEFTLTISSLQPEDFATYYCLQHYSYPRTFGQGTKVEVK
# notes: mAb
# B3: 7G4 (antibody, V domains shown)
# VH: B2 VH with S30N, N84T, T97A, V100K, G104N
# VL: B2 VL with K39R, F83S, Q90H, H91Q, V106I
# notes: mAb
# B4: 26C4 (antibody, V domains shown)
# VH: QVQLVQSGAEVKKPGASVKVSCKASGYTFTNYDINWVRQASGQGLEWMGWMNPNSGNTGYAQRFQGRVTMTRNTSINTAYMELSSLRSEDTAVYYCASSSGWYYFDYWGQGTLVTVSS
# VL: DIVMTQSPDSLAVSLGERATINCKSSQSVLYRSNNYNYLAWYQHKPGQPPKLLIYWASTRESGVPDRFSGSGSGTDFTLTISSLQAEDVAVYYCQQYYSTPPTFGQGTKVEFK
# notes: mAb
# B5: 4A2 (antibody, V domains shown)
# VH: B4 VH with A9T, S41T, N52H, R63K, M70L, N77S
# VL: DIVMTQSPDSLAVSLGERATINCKSSQSILHSSNNNNYLAWFQQKPGQPPKLLLYWASTRESGVPDRFSGSGSGTDFTLTISSLQPEDVAVYYCQQYYNTPVTFGPGTKVGIK
# notes: mAb
# B6: 29H8 (antibody, V domains shown)
# VH: B4 VH with K12Q, S41T, N77S, T78A
# VL: not shown
# notes: mAb
# B7: 7E11 (antibody, V domains shown)
# VH: QVQLVESGGGVVQPGRSLRLSCAASGFTFSSFGMHWVRQAPGKGLEWVAIIWHDGSNKYYADSVKGRFTISRDNSNNTLYLQMSSLRAEDTAVYYCARDLSMGGMDVWGQGTTVTVSS
# VL: DIQMTQSPSSLSASVGDRVTIACRASQNIISYLNWYQQKPGKAPKFLIYTASSLQSGVPSRFSGSGSGTDFTLTISSLQPEDFAIYYCQQTYSTPLTFGGGTKVEIK
# notes: mAb
# B8: 4H6 (antibody, V domains shown)
# VH: QVQLVQSGAEVKKPGASVKVSCKASGYTFTDYYLHWVRQAPGQGLEWMGWIHPNSGGTNYAQKFQGRVTMTRDTSISTAYMGLSSLRSDDTAVYYCARDGTSSFDYWGQGTLVTVSS
# VL: B1 VL with R30S, K31R, A50G, T85I
# notes: Tested as hybridoma supernatant at normalized concentration
# B9: 72G9 (antibody, V domains shown)
# VH: EVQLVESGGGLVKPGGSLRLSCAASGFTFSSYSMNWVRQAPGKGLEWVSSISGSSSYIYYADSVKGRFTISRDNAKNSLYLQMNSLRAEDTAVYFCARGGSRGFDPWGQGTLVTVSS
# VL: B1 VL with V11L, G28S, R30T, K31S, W32Y, A34N, A50T, A91S, N92H
# notes: as for B8
# B10: 56E5 (antibody, V domains shown)
# VH: B1 VH
# VL: B1 VL
# notes: as for B8
# B11: 4B1 (antibody, V domains shown)
# VH: QVQLQESGPGLVKPSETLSLTCSVSGDSISSYSWSWIRQPAGKGLEWIGRIYTSGSTNYIPSLKSRITMSVDTSKKQFSLKLSSVTAADTAVYYCARDLKSSGCLFFDYWGQGTLVTVSS
# VL: DIQMTQSPSSLSASVGDRVTITCRASHTIRTYLNWYQQKPGKAPKLLIYAASSLQSGVPSRINGSGSGTDFTLTITNLQPEDFATYYCQQSYNISFTFGPGTKVDIK
# notes: as for B8
# B12: 184E7 (antibody, V domains shown)
# VH: QVQLVQSGAEVKTPGASVKVSCRASGYTFTSYNMHWVRQVPGQGLEWMGWINPNNGGSNYTQKFQGRVTMTRDTSISTAYMELSRLRSDDTAVYYCARKFGDWGQGTLVTVSS
# VL: DIQMTQSPSSRSASIGERVTITCRASQGISNYLAWIQQKPGTAPKSLIYAASSLQSGVSSRFSGSGFGTDFTITISSVQREDFATYYCQQYNGYPFTFGHGTKVDIK
# notes: as for B8
# B13: 194A4 (antibody, V domains shown)
# VH: QVQLVQSGTEVKKPGASLKVSCKASGYTFTVYYLNWVRQAPGQGLEWMGWINPNSGGTNYAQKFQGRVTMTRDTSISTAYMELSRLRSDDTAVYYCARGYDILTGWGQGTLVTVSS
# VL: EIVLTQSPGTLSLSPGERATLSCRASRGVSNIYLAWYQQKPGQAPRLLIYGASNRATGIPDRFSGSGSGTDFTLTISRLEPEDFAVYYCQHNDYSMFTFGPGTKVDIK
# notes: as for B8
# B14: 29H8 (antibody, V domains shown)
# VH: B4 VH with K12Q, S41T, N77S, T78A
# VL: not shown
# notes: as for B8
# B15: 4A2 (antibody, V domains shown)
# VH: B4 VH with A9T, S41T, N52H, R63K, M70L, N77S
# VL: B5 VL
# notes: as for B8
# Target: T1, soluble human ASGR-1 carbohydrate …
# Assay: Octet BLI, mAb on AR2G tips, 1:1 fit
# From the text: To quantitate the binding affinity of specific antibodies for ASGR-1 (either purified from hybridoma supernatants or made recombinantly), association and dissociation rates can be measured using a ForteBio Octet instrument. […] Experimental kinetic results were globally fit to a 1:1 binding model in order to determine the association and dissociation rate constants as well as the equilibrium dissociation constant. Association and dissociation times were chosen to ensure that curvature was present during association curves and measured dissociation levels dropped at least 5% from starting levels. All Octet buffers contained 10 mM Tris (pH7.5), 150 mM NaCl, 1 mM CaCl₂), 0.10 mg/ml BSA and 0.13% Triton X-100. Octet assays were run at 27° C. Because this assay only measures binding to the ASGR-1 CBD, antibodies that recognize epitopes partially or entirely outside the CBD and/or recognize ASGR-1 in the context of a native ASGR complex, for example, as could occur on cell membranes, may not score as positive in this assay.
row,Kd [nM],Binder
1,0.5,B1
2,7.6,B2
3,0.9,B3
4,0.4,B4
5,0.06,B5
6,1,B6
7,1.6,B7

# Target: T2, human ASGR-1 mutant construct H203
# Assay: FACS, transfected CHO-S cells, mAb 5 ug/ml
# Method in brief: (§1)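 Transiently transfected CHO-S cells expressing wild-type or mutant hASGR-1 incubated with antibody at 5 ug/ml, 1 h at 4 °C; bound antibody detected by Alexa Fluor 647 anti-Fc plus 7-AAD, by flow cytometry. Binding normalized to expression using an unaffected antibody (65C12), then to wild type; hits defined as >3× IQR above third quartile.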
row,FACS Binding Geomean,Binder
1,20300,B1
2,12600,B2
3,18500,B3
4,13500,B4
5,18900,B5
6,13200,B6
7,14700,B7

# Target: T2, human ASGR-1 mutant construct H203
# Assay: FACS ratio: H203 normalized value / wt normalized value
# Method in brief: as §1
row,Normalization to wt ASGR1 Binding,Binder
1,0.962,B1
2,1.48,B2
3,1.2,B3
4,1.57,B4
5,0.997,B5
6,1.42,B6
7,1.42,B7

# Target: T3, Human ASGR-2
# Assay: FACS on transfected HEK 293 cells; binding = signal at least 2x irrelevant IgG
# Description: Human ASGR-1-specific, ligand competing antibody samples were tested for binding to ASGR-1 from other species (cynomologus monkey ASGR-1, mouse ASGR-1, rat ASGR-1, dog ASGR-1, and pig ASGR-1) as well as to human ASGR-2 in FACS binding assays at normalized antibody concentrations. For cell-based assays, HEK 293 cells expressing the appropriate antigen of interest were mixed with antibody sample or controls, incubated for 1 hour at 4° C., and then washed twice. Cells with bound antibody were then incubated with Alexa Fluor® 647 IgG Fc fragment-specific detection antibody and 7-AAD viability stain for 15 minutes at 4° C., washed once and resuspended in FACS buffer. Samples were analyzed using a BD Accuri™ Flow Cytometer and an Intellicyt HyperCyt Autosampler. As a negative control, supernatants and controls were also screened against HEK 293 cells transfected with empty parental vector. […] For membrane-prep binding assays, ASGR-1 species specific membrane preps were used to coat LumAvidin® microspheres (beads) and tested for binding to selected hybridoma supernatants or controls. Briefly, ASGR-1 species specific membrane preps were incubated with streptavidin-coated LumAvidin® beads for 45 minutes in the dark at room temperature and washed twice. Beads were resuspeneded in FACS buffer containing Stabilguard®. Antigen-bound beads were then incubated with normalized antibody sample for 1 hour in the dark at room temperature, washed twice, incubated with Alexa Fluor® 488 IgG Fc fragment-specific detection antibody for 15 minutes in the dark at room temperature, washed once and finally resuspended in FACS buffer. Samples were analyzed using an Intellicyt iQue™ Screener Platform. FACS buffer supplemented with 1 mM Calcium Chloride was used in all steps. As a negative control, supernatants and controls were also screened against a non-ASGR-1 antigen membrane prep coated on the LumAvidin® beads.
row,binding result,Binder
1,no binding,B8
2,no binding,B9
3,no binding,B10
4,no binding,B11
5,no binding,B12
6,no binding,B13
7,no binding,B14
8,no binding,B15
